In patent US11254722B2, “Recombinant proteins and uses thereof” (ACADEMIA SINICA, priority 2017, dated 2022):
Blank lines part the entries; values can stand above or below the molecule they belong to.

Legend:
[1] = test system: hep3B cells; test: hep3B proliferation assay; assay type: cell-based, human
Protocol: (§1) For the proliferation assay, cells except for HUVEC were seeded at a density of 1,000 to 6,000 in 96 wells in an assay buffer of DMEM/F12 plus 0.2% BSA and 10 ug/ml transferrin. Chemical inhibitors were added after 16-20 hours after plating; IGF-1 or other growth factors or test chimeras in assay buffer were added at the time of plating or 16-20 hours after plating. 5,000 HUVEC ells were plated in poly-L-lysine coated 96 wells in M199 with 1%/FBS and HEPES. After 3 to 4 days of culture, growth was determined by incubating cells with Alamar blue for 4 to 6 hours and then the fluorescence (RFU) at 544/590 nm was read. For long term proliferation assays, cells were plated in the growth media with 5% or 10% FBS at densities of 500 to 10,000 cells per cm^2 growth area and grown for 7 to 21 days. Inhibitors and effectors were added 1-4 days after plating. Cells were exposed to cisplatin or gemcitabine for two days. Medium was renewed twice weekly. At completion, cells were fixed and then stained with Giemsa.
The human hepatoma cell line hep3B could be stimulated by many growth factors including IGF-1, IGF-2, HGF, bFGF, VEGF, and neuregulin.

[2] = test system: HUVEC cells; test: HUVEC proliferation assay; assay type: cell-based
Protocol: (§2) MCF-7 cells (a breast cancer cell line) were maintained in MEM (GIBCO) plus insulin and NEAA and 10% FBS (Hyclone).
as §1
Growth factor synergism can also be observed in the proliferation of HUVEC cells.

[3] = test system: HT29 cells; test: HT29 proliferation assay; assay type: cell-based, human; conditions: FIG. 17A isobologram, FIG. 17B
Protocol: as §2, §1
The combination of drug (erlotinib and vemurafenib in hep3b and HT29 cells, respectively) and chimera can be synergistic; so, in addition to enhancing the inhibition, the chimera addition may also lower drug concentration requirements and reduce side effects.

[4] = test system: MCF-7 breast cancer cells; test: MCF-7 proliferation assay; assay type: cell-based; conditions: fetal bovine serum; FIG. 1, FIG. 4
Protocol: as §2, §1
We next examined the effect of 56662 (BP3/Fc) on the proliferation induced by growth factors that interacted with the IGFBP3. The proliferation of MCF-7 breast cancer cells was induced in serum-free medium by individual growth factors like IGF-1, IGF-2, EGF, TGF-a, Nrgbx, b-FGF, and amphiregulin (FIG. 1).

Molecule: COc1cccc2c1C(=O)c1c(O)c3c(c(O)c1C2=O)C[C@@](O)(C(=O)CO)C[C@@H]3O[C@H]1C[C@H](N)[C@H](O)[C@H](C)O1 [doxorubicin, reference compound]
proliferation of hep3B cells ([1]; 0.01 uM doxorubicin): greatly inhibited

IC50, FBS-stimulated proliferation of hep3B cells ([1]; Table 10): no inh
IC50, HGF-stimulated proliferation of hep3B cells ([1]; Table 10): no inh
IC50, IGF1-stimulated proliferation of hep3B cells ([1]; Table 10): No inh
IC50, bFGF-stimulated proliferation of hep3B cells ([1]; Table 10): no inh
IC50, nrg-stimulated proliferation of hep3B cells ([1]; Table 10): No inh
B1: met3con: SEQ ID NO: 32; Met3con is the met3 domain Fc (protein)
chain: MSEVPVARVWLVLLLLTVQVGVTAGAAASGGGSGGGGSGGGGSGGGGDPIVYEIHPTKSFISTWWKEPLNIVSFLFCFASGGSTITGVGKNLNSVSVPRMVINVHEAGRNFTVACQHRSNSEIICCTTPSLQQLNLQLPLKTKAFFMLDGILSKYFDLIYVHSGGGSGGGTGVECPPCPAPPVAGPSVFLFPPKPKDQLMISRTPEVTCVVVDVSHEDPEVKFNWYVDGVEVHNAKTKPREEQYNSTYRVVSVLTVLHQDWLNGKEYKCKVSNKGLPSSIEKTISKAKGQPREPQVYTLPPSREEMTKNQVSLTCLVKGFYPSDIAVEWESNGQPENNYKTTPPVLDSDGSFFLYSKLTVDKSRWQQGNVFSCSVMHEGLHNHYTQKSLSLSPGK

B2: 3(del2)3: IGFBP3 with IGFBP3 linker deletion 2-Fc, SEQ ID NO: 11 (protein)
chain: MSEVPVARVWLVLLLLTVQVGVTAGGASSAGLGPVVRCEPCDARALAQCAPPPAVCAELVREPGCGCCLTCALSEGQPCGIYTERCGSGLRCQPSPDEARPLQALLDGRGLCVNASAVSRPAPPAPGNASESEEDRSAGSVESPSVSSTHRVSDPKFHPKGHAKDSQRYKVDYESQSTDTQNFSSESKRETEYGPCRREMEDTLNHLKFLNVLSPRGVHIPNCDKKGFYKKKQCRPSKGRKRGFCWCVDKYGQPLPGYTTKGKEDVHCYSMQSKVECPPCPAPPVAGPSVFLFPPKPKDQLMISRTPEVTCVVVDVSHEDPEVKFNWYVDGVEVHNAKTKPREEQYNSTYRVVSVLTVLHQDWLNGKEYKCKVSNKGLPSSIEKTISKAKGQPREPQVYTLPPSREEMTKNQVSLTCLVKGFYPSDIAVEWESNGQPENNYKTTPPVLDSDGSFFLYSKLTVDKSRWQQGNVFSCSVMHEGLHNHYTQKSLSLSPGK
inhibition of VEGF-induced proliferation of HUVEC cells ([2]; FIG. 6, FIG. 13): did not inhibit
inhibition of HUVEC proliferation induced by IGF, bFGF, HGF or a combination ([2]; FIG. 13): inhibited

B3: D2V1V2Fc: IGFBP3 with IGFBP3 linker deletion 2-gly 3 linker-v1v2-Fc, SEQ ID NO: 17 (protein)
chain: MSEVPVARVWLVLLLLTVQVGVTAGHHHHHHGASSAGLGPVVRCEPCDARALAQCAPPPAVCAELVREPGCGCCLTCALSEGQPCGIYTERCGSGLRCQPSPDEARPLQALLDGRGLCVNASAVSRPAPPAPGNASESEEDRSAGSVESPSVSSTHRVSDPKFHPKGHAKDSQRYKVDYESQSTDTQNFSSESKRETEYGPCRREMEDTLNHLKFLNVLSPRGVHIPNCDKKGFYKKKQCRPSKGRKRGFCWCVDKYGQPLPGYTTKGKEDVHCYSMQSKAPPAPGNASESEEDRSAGIYIFISDTGRPFVEMYSEIPEIIHMTEGRELVIPCRVTSPNITVTLKKFPLDTLIPDGKRIIWDSRKGFIISNATYKEIGLLTCEATVNGHLYKTNYLTHRQGYRIYDVVLSPSHGIELSVGEKLVLNCTARTELNVGIDFNWEYPSSKHQHKKLVNRDLKTQSGSEMKKFLSTLTIDGVTRSDQGLYTCAASSGLMTKKNSTFVRVHEKVECPPCPAPPVAGPSVFLFPPKPKDQLMISRTPEVTCVVVDVSHEDPEVKFNWYVDGVEVHNAKTKPREEQYNSTYRVVSVLTVLHQDWLNGKEYKCKVSNKGLPSSIEKTISKAKGQPREPQVYTLPPSREEMTKNQVSLTCLVKGFYPSDIAVEWESNGQPENNYKTTPPVLDSDGSFFLYSKLTVDKSRWQQGNVFSCSVMHEGLHNHYTQKSLSLSPGK
inhibition with vemurafenib in HT29 cells [3]: synergistic inhibition
inhibition of HUVEC proliferation stimulated by IGF-1, bFGF, HGF, VEGF, and combinations ([2]; FIG. 14): inhibited

B4: 80716: IGFBP3 with IGFBP6 linker-gly 6 linker-v1v2-Fc, SEQ ID NO: 16 (protein)
chain: MSEVPVARVWLVLLLLTVQVGVTAGGASSAGLGPVVRCEPCDARALAQCAPPPAVCAELVREPGCGCCLTCALSEGQPCGIYTERCGSGLRCQPSPDEARPLQALLDGRGLCPARAPAVAEENPKESKPQAGTARPQDVNRRDQQRNPGTSTTPSQPNSAGVQDTEMGPCRREMEDTLNHLKFLNVLSPRGVHIPNCDKKGFYKKKQCRPSKGRKRGFCWCVDKYGQPLPGYTTKGKEDVHCYSMQSKPARAPAVAEENPKESKPQAGTARPQDVNRRDQQRNPGTSTTPSQPNSAGVQDTEMIYIFISDTGRPFVEMYSEIPEIIHMTEGRELVIPCRVTSPNITVTLKKFPLDTLIPDGKRIIWDSRKGFIISNATYKEIGLLTCEATVNGHLYKTNYLTHRQGYRIYDVVLSPSHGIELSVGEKLVLNCTARTELNVGIDFNWEYPSSKHQHKKLVNRDLKTQSGSEMKKFLSTLTIDGVTRSDQGLYTCAASSGLMTKKNSTFVRVHEKVECPPCPAPPVAGPSVFLFPPKPKDQLMISRTPEVTCVVVDVSHEDPEVKFNWYVDGVEVHNAKTKPREEQYNSTYRVVSVLTVLHQDWLNGKEYKCKVSNKGLPSSIEKTISKAKGQPREPQVYTLPPSREEMTKNQVSLTCLVKGFYPSDIAVEWESNGQPENNYKTTPPVLDSDGSFFLYSKLTVDKSRWQQGNVFSCSVMHEGLHNHYTQKSLSLSPGK
inhibition of FBS-induced proliferation of MCF-7 [4]: unable to inhibit

B5: 105795: IGFBP3 with IGFBP4 linker deletion-Fc, SEQ ID NO: 9 (protein)
chain: MSEVPVARVWLVLLLLTVQVGVTAGGASSAGLGPVVRCEPCDARALAQCAPPPAVCAELVREPGCGCCLTCALSEGQPCGIYTERCGSGLRCQPSPDEARPLQALLDGRGLCMELAEIEAIQESLQPSDKDEGDHPNNSFSPCSAHDRRCLQETEYGPCRREMEDTLNHLKFLNVLSPRGVHIPNCDKKGFYKKKQCRPSKGRKRGFCWCVDKYGQPLPGYTTKGKEDVHCYSMQSKVECPPCPAPPVAGPSVFLFPPKPKDQLMISRTPEVTCVVVDVSHEDPEVKFNWYVDGVEVHNAKTKPREEQYNSTYRVVSVLTVLHQDWLNGKEYKCKVSNKGLPSSIEKTISKAKGQPREPQVYTLPPSREEMTKNQVSLTCLVKGFYPSDIAVEWESNGQPENNYKTTPPVLDSDGSFFLYSKLTVDKSRWQQGNVFSCSVMHEGLHNHYTQKSLSLSPGK
inhibition of FBS-induced proliferation of MCF-7 [4]: unable to inhibit
